Paper PMC9795039, “Kindlin2 enables EphB/ephrinB bi-directional signaling to support vascular development” (Life Science Alliance, 2022)
Residue numbers refer to the chain shown, from its start. Names and notes keep the numbering of the source.

T1: his-tagged human full-length kindlin2 (human, UniProt Q96AC1 1-680)
T1 construct: human full-length kindlin2 in gWIZ vector; also called purified kindlin2; recombinant kindlin2; source: Expi293F cells, purified
T1 sequence (looked up): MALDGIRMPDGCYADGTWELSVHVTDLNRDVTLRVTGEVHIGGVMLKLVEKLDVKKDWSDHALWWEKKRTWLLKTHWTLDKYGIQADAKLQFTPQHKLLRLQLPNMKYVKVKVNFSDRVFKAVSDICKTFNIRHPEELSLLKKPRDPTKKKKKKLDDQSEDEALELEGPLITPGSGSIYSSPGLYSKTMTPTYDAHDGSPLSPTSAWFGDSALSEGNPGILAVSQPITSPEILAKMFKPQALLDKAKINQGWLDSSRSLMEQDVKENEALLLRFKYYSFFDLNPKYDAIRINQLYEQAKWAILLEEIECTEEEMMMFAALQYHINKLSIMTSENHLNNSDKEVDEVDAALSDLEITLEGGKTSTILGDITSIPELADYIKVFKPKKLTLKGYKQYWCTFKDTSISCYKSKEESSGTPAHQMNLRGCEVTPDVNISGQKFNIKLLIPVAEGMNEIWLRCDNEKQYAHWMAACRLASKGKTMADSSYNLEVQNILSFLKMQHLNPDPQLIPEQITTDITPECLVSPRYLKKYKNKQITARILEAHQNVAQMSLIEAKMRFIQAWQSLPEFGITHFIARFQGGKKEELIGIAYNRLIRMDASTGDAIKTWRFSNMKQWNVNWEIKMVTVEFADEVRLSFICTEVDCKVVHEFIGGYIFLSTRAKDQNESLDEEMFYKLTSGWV

B1: his/Avi-tagged cytoplasmic tail of ephrinB2 WT (domain or fragment, UniProt P52799 251-333, looked up)
chain: KYRRRHRKHSPQHTTTLSLSTLATPKRSGNNNGSEPSDIIIPLRTADSVFCPHYEKVSGDYGHPVYIVQEMPPQSPANIYYKV
modifications: biotinylated
notes: ephrinB2 cytoplasmic tail; Vector (his/Avi-tagged in pET15) and purification after Pfaff et al, 1998; The forward primer printed for the 4A construct reads KYRRR after the HindIII site, which may mark the start of the tail; also called ephrinB2 WT tail; ephrinB2 cytoplasmic tail; source: Escherichia coli (DE3), purified
B2: his/Avi-tagged cytoplasmic tail of ephrinB2 N328A (domain or fragment, UniProt P52799 251-333, looked up)
chain: B1 chain with N78A
modifications: biotinylated
notes: ephrinB2 cytoplasmic tail with N328A; source: Escherichia coli (DE3), purified
B3: his/Avi-tagged cytoplasmic tail of ephrinB2 Y331A (domain or fragment, UniProt P52799 251-333, looked up)
chain: B1 chain with Y81A
modifications: biotinylated
notes: ephrinB2 cytoplasmic tail with Y331A; source: Escherichia coli (DE3), purified
B4: his/Avi-tagged cytoplasmic tail of ephrinB2 2A (domain or fragment, UniProt P52799 251-333, looked up)
chain: B1 chain with N78A, Y81A
modifications: biotinylated
notes: ephrinB2 cytoplasmic tail with N328A and Y331A; also called double point mutation (N328A and Y331A); source: Escherichia coli (DE3), purified
B5: his/Avi-tagged cytoplasmic tail of ephrinB2 S325A (domain or fragment, UniProt P52799 251-333, looked up)
chain: B1 chain with S75A
modifications: biotinylated
notes: ephrinB2 cytoplasmic tail with S325A; source: Escherichia coli (DE3), purified

Molecular target: T1, his-tagged human full-length kindlin2
Assay: pull-down; in vitro binding assay: purified kindlin2 mixed with purified cytoplasmic tails immobilised on NeutrAvidin beads; Western blot with anti-kindlin2 antibody
Details: both partners purified

Row | binding result | Binder
1 | binds | B1
2 | binds | B2
3 | binds | B3
4 | binds | B4
5 | binds | B5
